# Data from patent US20110009283A1.
# Values joined by “and” are separate entries in the source; they are usually repeats but may differ in a detail not shown here. Equal entries are not always repeated. Where two headings read alike, the source gives them in different places. Where no end group is shown, it is not given here.
# T1: Rattus Kv1.1 (Rattus), P10499
# T1 chain: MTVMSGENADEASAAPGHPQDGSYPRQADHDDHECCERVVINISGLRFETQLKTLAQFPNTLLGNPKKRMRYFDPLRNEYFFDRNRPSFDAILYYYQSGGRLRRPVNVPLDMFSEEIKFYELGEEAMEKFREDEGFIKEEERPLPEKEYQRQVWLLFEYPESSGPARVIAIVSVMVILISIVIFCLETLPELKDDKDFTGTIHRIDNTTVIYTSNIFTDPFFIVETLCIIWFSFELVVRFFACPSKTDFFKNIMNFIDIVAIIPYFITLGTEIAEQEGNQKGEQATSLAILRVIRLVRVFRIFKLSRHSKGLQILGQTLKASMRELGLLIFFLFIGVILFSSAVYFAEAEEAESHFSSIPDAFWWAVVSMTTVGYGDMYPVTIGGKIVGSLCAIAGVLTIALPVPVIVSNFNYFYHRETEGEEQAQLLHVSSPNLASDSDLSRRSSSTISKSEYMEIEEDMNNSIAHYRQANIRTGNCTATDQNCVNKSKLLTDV
# T2: Rattus Kv1.2 (Rattus), P63142
# T2 chain: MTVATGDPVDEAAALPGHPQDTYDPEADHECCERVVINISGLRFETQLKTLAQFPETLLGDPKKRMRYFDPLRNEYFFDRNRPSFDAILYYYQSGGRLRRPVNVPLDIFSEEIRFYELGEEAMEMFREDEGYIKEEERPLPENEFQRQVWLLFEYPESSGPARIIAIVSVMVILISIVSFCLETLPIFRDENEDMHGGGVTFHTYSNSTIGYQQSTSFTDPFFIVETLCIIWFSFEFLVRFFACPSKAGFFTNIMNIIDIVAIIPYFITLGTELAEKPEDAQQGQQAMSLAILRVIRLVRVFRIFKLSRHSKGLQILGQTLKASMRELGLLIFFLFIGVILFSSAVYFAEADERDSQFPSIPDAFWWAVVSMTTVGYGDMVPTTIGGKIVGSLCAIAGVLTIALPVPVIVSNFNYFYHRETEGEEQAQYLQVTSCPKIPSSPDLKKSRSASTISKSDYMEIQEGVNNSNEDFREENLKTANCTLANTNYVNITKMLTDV
# T3: KcsA, wild-type, P0A334
# T3 chain: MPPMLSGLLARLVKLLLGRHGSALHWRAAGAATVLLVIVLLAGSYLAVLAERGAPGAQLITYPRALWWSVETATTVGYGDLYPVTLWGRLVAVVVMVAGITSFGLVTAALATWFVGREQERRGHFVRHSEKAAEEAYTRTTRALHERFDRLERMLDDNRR
# Legend:
# [1] = target: T4, Kv1.3 K+ channel, wild-type, expressed in cells (species not stated) (Homo sapiens (Human)), P22001
# [2] = target: T4, Kv1.3 K+ channel, wild-type, expressed …; remark: listed apart in the source
# [3] = target: T4, Kv1.3 K+ channel, wild-type, expressed …; assay: cell-based or functional assay
# [4] = target: T4, Kv1.3 K+ channel, wild-type, expressed …; assay: one round of phage panning on mammalian cells expressing Kv1.3
# [5] = target: T4, Kv1.3 K+ channel, wild-type, expressed …; assay: panning of a 2:2:96 phage mixture on HEK cells expressing Kv1.3
# [6] = target: T4, Kv1.3 K+ channel, wild-type, expressed …; assay: phage panning on COS cells transfected with Kv1.3 vs vector; 5x10^11 phagemids
# [7] = target: T4, Kv1.3 K+ channel, wild-type, expressed …; assay: phage panning on HEK cells transfected with Kv1.3 vs vector; 5x10^11 phagemids
# [8] = target: antiserum to sarafotoxin S6b
# [9] = target: Homo Kv1.3 (Homo), P22001
# [10] = target: T5, Mus BK (big conductance calcium-activated K channel) (Mus), Q08460
# [11] = target: T1, Rattus Kv1.1 (Rattus), P10499
# [12] = target: T2, Rattus Kv1.2 (Rattus), P63142
# [13] = target: BK channel (species not stated); assay: cell-based or functional assay
# [14] = target: Kv1.1 K+ channel (species not stated); assay: cell-based or functional assay
# [15] = target: Kv1.2 K+ channel (species not stated); assay: cell-based or functional assay
# [16] = target: Homo Kv1.3 (Homo), P22001; assay: two-electrode voltage clamp, kinetics of block in Xenopus oocytes
# [17] = target: T5, Mus BK (big conductance …); assay: as above
# [18] = target: T1, Rattus Kv1.1 (Rattus), P10499; assay: as above
# [19] = target: T2, Rattus Kv1.2 (Rattus), P63142; assay: as above
# [20] = target: KcsA-Kv1.3 (KcsA carrying a segment of the Kv1.3 pore loop)
# [21] = target: antiserum to sarafotoxin S6b; remark: listed apart in the source
# [22] = target: T4, Kv1.3 K+ channel, wild-type, expressed …; remark: listed apart in the source
# KcsA, wild-type, P0A334 = target: T3, KcsA, wild-type, P0A334; assay: phage panning of Shk / Camel VHH mixture on KcsA (n = 17-20)
# Homo Kv1.3 (Homo), P22001, sequence (P22001 whole entry): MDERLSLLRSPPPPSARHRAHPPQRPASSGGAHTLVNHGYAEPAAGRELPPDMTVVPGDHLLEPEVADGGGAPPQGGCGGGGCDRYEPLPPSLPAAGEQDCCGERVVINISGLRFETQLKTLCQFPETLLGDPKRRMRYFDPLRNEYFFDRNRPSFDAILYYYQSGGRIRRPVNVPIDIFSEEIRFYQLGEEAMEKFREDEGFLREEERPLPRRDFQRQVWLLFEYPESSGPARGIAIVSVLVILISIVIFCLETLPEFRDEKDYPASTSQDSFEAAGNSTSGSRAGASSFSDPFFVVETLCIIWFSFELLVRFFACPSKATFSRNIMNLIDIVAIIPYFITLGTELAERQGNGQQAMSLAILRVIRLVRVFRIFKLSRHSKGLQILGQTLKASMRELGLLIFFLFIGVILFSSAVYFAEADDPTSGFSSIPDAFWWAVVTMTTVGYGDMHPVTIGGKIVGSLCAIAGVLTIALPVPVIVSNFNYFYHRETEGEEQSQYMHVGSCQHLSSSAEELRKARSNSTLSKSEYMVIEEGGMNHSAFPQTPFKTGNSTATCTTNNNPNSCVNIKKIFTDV
# T4 sequence (P22001 whole entry): as above
# T5 sequence (Q08460 whole entry): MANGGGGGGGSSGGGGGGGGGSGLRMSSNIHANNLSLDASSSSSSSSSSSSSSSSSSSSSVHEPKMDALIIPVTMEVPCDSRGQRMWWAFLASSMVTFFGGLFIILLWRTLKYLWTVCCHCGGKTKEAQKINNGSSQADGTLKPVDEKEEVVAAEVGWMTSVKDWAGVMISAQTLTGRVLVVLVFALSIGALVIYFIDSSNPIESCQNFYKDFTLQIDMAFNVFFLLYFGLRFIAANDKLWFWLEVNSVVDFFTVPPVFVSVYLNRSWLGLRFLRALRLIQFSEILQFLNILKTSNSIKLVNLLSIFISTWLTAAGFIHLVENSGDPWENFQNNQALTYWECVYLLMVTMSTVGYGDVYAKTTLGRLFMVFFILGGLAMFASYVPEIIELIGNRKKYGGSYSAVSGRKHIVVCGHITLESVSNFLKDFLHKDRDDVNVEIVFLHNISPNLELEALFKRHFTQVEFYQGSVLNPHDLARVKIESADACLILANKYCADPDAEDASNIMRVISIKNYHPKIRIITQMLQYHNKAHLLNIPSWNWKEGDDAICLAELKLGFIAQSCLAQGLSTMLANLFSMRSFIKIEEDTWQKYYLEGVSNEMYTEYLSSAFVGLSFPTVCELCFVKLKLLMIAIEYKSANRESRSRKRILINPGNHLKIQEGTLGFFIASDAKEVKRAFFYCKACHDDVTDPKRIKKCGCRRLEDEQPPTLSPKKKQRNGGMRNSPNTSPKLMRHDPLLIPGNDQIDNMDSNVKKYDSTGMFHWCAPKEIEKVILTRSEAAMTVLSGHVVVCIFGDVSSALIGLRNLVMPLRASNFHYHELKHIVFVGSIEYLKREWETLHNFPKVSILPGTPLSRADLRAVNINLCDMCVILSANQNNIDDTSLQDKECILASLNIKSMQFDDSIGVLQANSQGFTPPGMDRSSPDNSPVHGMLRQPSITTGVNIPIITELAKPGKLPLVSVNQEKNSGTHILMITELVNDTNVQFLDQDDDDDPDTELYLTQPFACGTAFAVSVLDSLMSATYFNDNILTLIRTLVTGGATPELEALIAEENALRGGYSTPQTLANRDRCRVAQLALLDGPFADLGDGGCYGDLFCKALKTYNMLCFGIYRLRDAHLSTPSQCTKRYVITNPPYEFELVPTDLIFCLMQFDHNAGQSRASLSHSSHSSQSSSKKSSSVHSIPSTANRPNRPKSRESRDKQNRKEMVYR
binder,measurement,setting,value
GVEINVKCSGSPQCLKPCKDAGMRFGKCMNRKCHCTPK (modifications not checked) [Kaliotoxin-1 phage (KTX-phage)],output KTX (%),[1],22% and 30% and 26%
same,"% of recovered phage, 2nd round",[2],0%
same,"% of recovered phage, 3rd round",[2],58%
same,"block of Kv1.3 currents, whole-cell patch-clamp in HEK293 cells, 1 nM KTX-phage",[3],35%
same,time to half reversal of inhibition on washing,[3],20 min
same,Fold Enrichment,[4],4.3 fold and 5.2 fold
same,% of phages after the 2nd panning,[5],40%
same,fold enrichment (Kv1.3-transfected vs vector cells),[6],10 fold
same,fold enrichment (Kv1.3-transfected vs vector cells),[7],20 fold
same,Output (% Ligands),[8],0%
GVEINVKCSGSPQCLKPCKDAGMRFGKCMNRKCHCTPK (modifications not checked) [Kaliotoxin-1 (KTX)],Ki,[9],0.008 nM
same,Ki,[10],1.6 nM
same,Ki,[11],1.1 nM
same,Ki,[12],20 nM
same,approximate IC50 (nM) of channel block,[13],5 nM
same,approximate IC50 (nM) of channel block,[14],0.1 nM
same,approximate IC50 (nM) of channel block,[15],1.4 nM
same,approximate IC50 (nM) of channel block,[3],0.5 nM
same,koff,[16],0.007 s⁻¹
same,kon,[16],8e+08 M⁻¹ s⁻¹
same,koff,[17],0.0211 s⁻¹
same,kon,[17],21000 M⁻¹ s⁻¹
same,koff,[18],0.009 s⁻¹
same,kon,[18],3e+07 M⁻¹ s⁻¹
same,koff,[19],0.21 s⁻¹
same,kon,[19],1.3e+07 M⁻¹ s⁻¹
GVPINVSCTGSPQCIKPCKDAGMRFGKCMNRKCHCTPK (modifications not checked) [Agitoxin-2 (AgTx2)],Ki,[9],0.041 nM
same,Ki,[11],0.17 nM
same,Ki,[12],3.4 nM
same,approximate IC50 (nM) of channel block,[13],1150 nM
same,approximate IC50 (nM) of channel block,[14],0.04 nM
same,approximate IC50 (nM) of channel block,[15],26.8 nM
same,approximate IC50 (nM) of channel block,[3],0.004 nM
ZFTNVSCTTSKECWSVCQRLHNTSRGKCMNKKCRCYS (modifications not checked) [Charybdotoxin (CTX)],Ki,[9],0.9 nM
same,Ki,[10],5 nM
same,Ki,[11],> 1000 nM
same,Ki,[12],9 nM
same,approximate IC50 (nM) of channel block,[13],3 nM
same,approximate IC50 (nM) of channel block,[14],1500 nM
same,approximate IC50 (nM) of channel block,[15],5.6 nM
same,approximate IC50 (nM) of channel block,[3],2.5 nM
CSCKDMTDKECLYFCHQDVIW (cysteine pairing not given here; also: displayed on phage via linker and coat protein) [sarafotoxin S6b phage],Output (% Ligands),[20],0%
same,Output (% Ligands),[21],100%
"GVEINVKCSGSPQCLKPCKDAGMDFGDCMNDKCHCTPK (modifications not checked) [DDD-KTX-phage (inactive kaliotoxin-1, R24D, K27D, R31D, on phage)]","# of genotype, Test",[22],2 colonies
same,"% of genotype, Test",[22],10%
same,"% of recovered phage, 2nd round",[2],100%
same,"% of recovered phage, 3rd round",[2],42%
RSCIDTIPKSRCTAFQCKHSMKYRLSFCRKTCGTC (modifications not checked) [Shk phage (sea anemone K+ channel toxin ShK on phage)],"% phages, OUTPUT","KcsA, wild-type, P0A334",0%
